For this test, the target named is T1, Aβ1-28 wild type (human).
T1 construct: amyloid-β (Aβ) residues 1-28, cut from the amyloid β precursor protein (APP); numbers count on: the Aβ peptide (position 2 of Aβ is position 673 of APP); Assembles into fibrils; also called Aβ1-28WT; WT; source: synthetic peptide (Fmoc solid-phase synthesis, purified by reverse-phase HPLC, purity >95%)
The test is described as follows: neutron diffraction + other: synchrotron X-ray fibre diffraction; peptides or their mixtures dissolved in ddH2O at 10 mg/mL, dried four days at ambient temperature on quartz in a 7 T static magnetic field, re-humidified against 100% D2O for about 14 days; small- and wide-angle patterns. The following applies: both partners purified.

B1: Aβ1-28A2V (peptide)
peptide: DVEFRHDSGYEVHHQKLVFFAEDVGSNK
notes: amyloid-β (Aβ) residues 1-28 with the naturally occurring A-to-V substitution at position 2 of Aβ (A673V in APP); numbers count on: the Aβ peptide (position 2 of Aβ is position 673 of APP); also called mutated peptide Aβ1-28A2V; source: synthetic peptide (Fmoc solid-phase synthesis, purified by reverse-phase HPLC, purity >95%)
As for B1, the binding result was “binds”.

(Values after publication PMC5511251, “The A2V mutation as a new tool for hindering Aβ aggregation: A neutron and x-ray diffraction study” (Scientific Reports, 2017).)
